From doi:10.1101/2025.06.17.660072

Test system: PSMα3
Assay: EMSA

Substance	Kd [µM]
Poly (A) RNA, oligoA	94.5
Poly (AU) RNA, oligoA/oligoU duplex	61.8
